Experimental data as given in the domain aggregation screens of Martell et al. (2025).

Assay: soluble fraction after stress (log2 fold change); higher = more stays soluble; pooled small domains, quantitative proteomics
Details: stress: 75 degC
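Also: 20 min heating vs room temperature control held 20 min.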

## HMAHRYQQIADDLGRRVEAGEFAAGRLLPSEATLSGQYKASRVTVRKALEALRTDGLVESRQGFGWFVAAD
  soluble fraction (log2): -0.405

## HMAIADQPISAEHFDKLRQVLNSNTQETIASAKQHWASISNNAEFTNENVTRTLLEEMLAFIKSAS
  soluble fraction (log2): 0.415

## HMAIDVQELARTRLRSLRTTLGYSLDELAARTHLSPSTISRLETGKRSLSLDVVVPLAQALHVSLDVLFEA
  soluble fraction (log2): -2.67

## HMAIEGIFEKYQRRSDQLIPILQDVQKEFGYIAPESVRHISRYLRISENQIFGVSSFYAQFRFT
  soluble fraction (log2): -0.228

## HMAIGTDPETGISVVADGTDFIWTRSGATSTIFLRLDSENSYILNVKQGDFEVIDYELGEGQENAINIDQS
  soluble fraction (log2): 0.0422

## HMAIPEVDPAKQGVSATQLAALDALAHRNAGEGRVAGMVNVVIRNGEIVYYKATGPRHIDGGAPLKSTDLF
  soluble fraction (log2): -0.148

## HMAIQGVRLYERTLETGDPWLDRPLSTLSTGTRLIILVRRGGDVLIPKGDTVLLAGDTLVINDS
  soluble fraction (log2): -3.85

## HMAIRPDAAVSSHAVKQRLQSLIRAEDPAAPLSDEALRLALSALGIGVSRRAVAKYRAEMGIPSSSQRKK
  soluble fraction (log2): -0.492

## HMAISQYGSQSDEVTKIQTRLKAWGYFDGPVTAYYGSQTTEAVKKFQQKHGLSATGVADAKTLELIGLP
  soluble fraction (log2): -0.397

## HMAITLEQFLSVNPHIRNNLYGNAVELVKDKDFSVLSDKLKASSKWANEPSLYKILSHYDEIIS
  soluble fraction (log2): -0.335

## HMAKDSQSADVLQAIFDGSKVLNGLALDQDMRWDLINGLVMSGRLGVEAIEAEAAKLAKLVEELEFR
  soluble fraction (log2): -0.976

## HMAKETLRANIKDYIQKQIASGVYRPGDRIVETQLAREMNVSQAPVREAILELVSLGLLEERPYSGHMVRQ
  soluble fraction (log2): 0.0046

## HMAKIKVFELKNQINSLIKNKIESKDIIDFIETNFGVKKSHSSALEENEANFIKNYFVHADKA
  soluble fraction (log2): -0.264

## HMAKIPASTVVEIDGAPVVVAVRVNARARSYRLSIPHSGGPLLTLPPHGKWAEAEAFLLRHHNWLAARLHR
  soluble fraction (log2): -2.92

## HMAKQEPTDNGYDIYKVTASVLNVRNGAGTSYAVAYQLSKEDYVEVVSIDKGWAKLKDGKYVSADWITLYK
  soluble fraction (log2): -2.53

## HMAKRINVKLIMELSAGGLTQNEIASSRHFSKTSVNLVLKTARELNVSAADLREMSPEEAYRLFFPEK
  soluble fraction (log2): -1.66

## HMAKRKTEKTSVLEEIDGVGKARARALLARFGGLSGVKAASPEELRTVRGITPEIAENIRRYFQ
  soluble fraction (log2): -0.0813

## HMAKRMRNPNGYGSIVKLSGNRRNPYMVKVNTHMDERYYPVYDILGYYPTWADASIALAKYNDDPYNVS
  soluble fraction (log2): -0.777

## HMAKRQATIVYEGTNVRSGPSTSSAIVKRTGKGESYPIVSTKGDWYEIKLSNGDSAYVASWVVQTVD
  soluble fraction (log2): -0.728

## HMAKRYFVTTGVRVRTKPDTANSEVLTVLDEGSEIDYKGDYNNEWVKINYNGQEAYIAKQYVRSEE
  soluble fraction (log2): -0.382

## HMAKSDLNYLDFKSKLEAGEIAKASVIRNEDTFKVTLQNGEVYNVTSPDYEDFRKELLEAGVDIQVSK
  soluble fraction (log2): 0.116

## HMAKSMRHLIVPSRETSLWRDKLSTNGWLSKGYGIHNLDDYRGIPLNETAPKIIEGLEITELEPIS
  soluble fraction (log2): 0.124

## HMAKTALEQAQAMVAAYVAAEQQILLGKEVRMGGPGIDRWLRFEDLQEVRAGRKEWESTVTRLQNTAA
  soluble fraction (log2): -1.27

## HMAKTGMDALVGRRVVLTKAIAGEGEGLVAVDGDVWRATSPAGSAIPKGTEVRITGYRSIVLEVEPI
  soluble fraction (log2): -1.87

## HMAKYEVVAKDIISRIKQNEFETTLKLPTEDEMIEYYQVSRNTVRSALKLLTSQGIIFSRQGSGFYIRQRS
  soluble fraction (log2): -1.95

## HMALALSGVDLNRNRLTISWQTSKGVSYRVQRSSDLQSWTDVGAERLGNGNRLSHTQALNTESAFLRVII
  soluble fraction (log2): -0.0203

## HMALEGTLARVSVRIPESGVGEIIFSLGGVRRSEAARSVSGRAIPRGTEVVILSYERGIATVQPYEELLTN
  soluble fraction (log2): -1.64

## HMALEVPGIAKDKIYRIFGQLYERQQKWEDAIDYYNRAVFFTLSGTDMILYQEDLSRVKQKISL
  soluble fraction (log2): -0.283

## HMALKRVAPQGEDKLSAQLDGVEFDKLIPWLGMLEHDHRIAIVNLSIDRANATGLVNARVIL
  soluble fraction (log2): 0.115

## HMALKSGVIAHAVDDAVMRGLNVFTVSDDGSIVSMKDNDIVLGKDGKSPYSVSEWLEELKPNVPHWFG
  soluble fraction (log2): -0.166
